Laboratory results reported in IntAct's records for PubMed 18940603.

B1: Ras-related protein Rab-27A (Mus musculus), Q9ERI2 (parent)
chain: MSDGDYDYLIKFLALGDSGVGKTSVLYQYTDGKFNSKFITTVGIDFREKRVVYRANGPDGAVGRGQRIHLQLWDTAGQERFRSLTTAFFRDAMGFLLLFDLTNEQSFLNVRNWISQLQMHAYCENPDIVLCGNKSDLEDQRAVKEEEARELAEKYGIPYFETSAANGTNISHAIEMLLDLIMKRMERCVDKSWIPEGVVRSNGHTSADQLSEEKEKGLCGC
partner: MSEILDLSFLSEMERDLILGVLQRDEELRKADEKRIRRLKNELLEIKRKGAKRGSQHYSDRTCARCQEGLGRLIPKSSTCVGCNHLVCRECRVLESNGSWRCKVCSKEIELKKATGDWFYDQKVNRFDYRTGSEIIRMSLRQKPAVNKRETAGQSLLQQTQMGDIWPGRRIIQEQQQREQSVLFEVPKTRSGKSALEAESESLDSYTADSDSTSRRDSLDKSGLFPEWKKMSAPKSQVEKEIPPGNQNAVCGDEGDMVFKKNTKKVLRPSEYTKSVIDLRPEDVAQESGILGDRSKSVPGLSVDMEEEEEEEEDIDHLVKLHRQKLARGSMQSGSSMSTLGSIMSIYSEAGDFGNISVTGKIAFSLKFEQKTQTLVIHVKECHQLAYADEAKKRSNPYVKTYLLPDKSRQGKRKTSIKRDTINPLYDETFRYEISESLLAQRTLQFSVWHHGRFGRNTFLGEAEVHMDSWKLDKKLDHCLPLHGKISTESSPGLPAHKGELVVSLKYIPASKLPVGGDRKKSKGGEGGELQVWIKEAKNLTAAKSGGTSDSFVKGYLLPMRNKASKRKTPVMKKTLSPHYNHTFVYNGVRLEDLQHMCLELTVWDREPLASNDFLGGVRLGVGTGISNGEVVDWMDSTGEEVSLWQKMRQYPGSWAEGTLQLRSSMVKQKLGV
B2: Ras-related protein Rab-27B (Mus musculus), Q99P58 (parent)
chain: MTDGDYDYLIKLLALGDSGVGKTTFLYRYTDNKFNPKFITTVGIDFREKRVVYDTQGADGASGKAFKVHLQLWDTAGQERFRSLTTAFFRDAMGFLLMFDLTSQQSFLNVRNWMSQLQANAYCENPDIVLIGNKADLPDQREVNERQARELAEKYGIPYFETSAATGQNVEKSVETLLDLIMKRMEKCVEKTQVPDTVNGGNSGKLDGEKPAEKKCAC
partner: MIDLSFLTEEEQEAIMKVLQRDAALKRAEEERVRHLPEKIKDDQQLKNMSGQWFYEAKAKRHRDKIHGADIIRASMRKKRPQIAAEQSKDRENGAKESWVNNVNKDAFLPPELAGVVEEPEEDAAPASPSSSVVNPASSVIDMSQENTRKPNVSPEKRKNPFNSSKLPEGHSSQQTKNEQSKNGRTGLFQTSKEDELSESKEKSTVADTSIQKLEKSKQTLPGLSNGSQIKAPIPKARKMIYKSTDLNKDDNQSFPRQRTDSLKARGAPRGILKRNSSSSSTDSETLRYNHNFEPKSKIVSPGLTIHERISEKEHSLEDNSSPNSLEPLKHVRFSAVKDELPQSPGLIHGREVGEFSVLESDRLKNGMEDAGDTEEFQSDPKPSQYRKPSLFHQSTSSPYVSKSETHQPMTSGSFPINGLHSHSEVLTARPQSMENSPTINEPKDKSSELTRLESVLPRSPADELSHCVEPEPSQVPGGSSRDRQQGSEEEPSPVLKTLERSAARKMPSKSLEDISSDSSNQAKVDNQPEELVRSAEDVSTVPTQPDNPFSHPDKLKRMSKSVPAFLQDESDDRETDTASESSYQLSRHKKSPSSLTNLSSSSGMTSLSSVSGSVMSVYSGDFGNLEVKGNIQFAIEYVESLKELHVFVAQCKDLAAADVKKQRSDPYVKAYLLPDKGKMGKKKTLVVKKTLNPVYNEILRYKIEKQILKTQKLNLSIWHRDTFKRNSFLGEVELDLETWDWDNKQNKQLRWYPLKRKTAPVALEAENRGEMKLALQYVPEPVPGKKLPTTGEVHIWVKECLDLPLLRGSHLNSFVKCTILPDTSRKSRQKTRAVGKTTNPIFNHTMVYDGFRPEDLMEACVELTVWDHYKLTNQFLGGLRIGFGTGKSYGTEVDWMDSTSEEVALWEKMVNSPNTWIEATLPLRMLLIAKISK
B3: Ras-related protein Rab-27B (Mus musculus), Q99P58 (parent)
chain: B2 chain
partner: B1 partner
B4: Ras-related protein Rab-27A (Mus musculus), Q9ERI2 (parent)
chain: B1 chain
partner: B2 partner
B5: Ras-related protein Rab-27B (Mus musculus), Q99P58 (parent)
chain: B2 chain
partner: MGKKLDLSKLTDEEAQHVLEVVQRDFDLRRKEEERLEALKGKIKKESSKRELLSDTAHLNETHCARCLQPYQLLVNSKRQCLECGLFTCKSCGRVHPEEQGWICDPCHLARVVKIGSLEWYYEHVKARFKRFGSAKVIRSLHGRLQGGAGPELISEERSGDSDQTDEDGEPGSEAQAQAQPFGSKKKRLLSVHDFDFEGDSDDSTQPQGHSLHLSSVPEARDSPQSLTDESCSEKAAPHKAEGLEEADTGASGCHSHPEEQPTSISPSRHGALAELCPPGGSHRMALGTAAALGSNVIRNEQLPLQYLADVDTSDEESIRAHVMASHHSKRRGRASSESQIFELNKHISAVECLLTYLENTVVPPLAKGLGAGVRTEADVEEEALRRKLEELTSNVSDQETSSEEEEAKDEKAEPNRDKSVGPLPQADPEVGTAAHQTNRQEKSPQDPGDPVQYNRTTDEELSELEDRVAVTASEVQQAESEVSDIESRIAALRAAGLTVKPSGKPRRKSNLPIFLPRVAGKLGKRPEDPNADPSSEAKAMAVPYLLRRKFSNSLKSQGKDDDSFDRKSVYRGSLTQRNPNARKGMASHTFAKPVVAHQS
B6: Ras-related protein Rab-27A (Mus musculus), Q9ERI2 (parent)
chain: B1 chain
partner: B5 partner

Variants of: B1
Settings: with Sytl4, Q9R0Q1-1
In the case of MSDGDYDYLIKFLALGDSGVGKTSVLYQYTDGKFNSKFITTVGIDFREKRVVYRANGPDGAVGRGQRIHLQLWDTAGQERFRSLTTAFFRDAMGFLLLFDLTNEQSFLNVRNWISQLQMHAYSENPDIVLCGNKSDLEDQRAVKEEEARELAEKYGIPYFETSAANGTNISHAIEMLLDLIMKRMERCVDKSWIPEGVVRSNGHTSADQLSEEKEKGLCGC [C123S], the “effect of a mutation on the interaction” value is reported as “increasing interaction”. For MSDGDYDYLIKFLALGDSGVGKTSVLYQYTDGKFNSKFITTVGIDFREKRVVYRANGPDGAVGRGQRIHLQLWDTAGQERFRSLTTAFFRDAMGFLLLFDLTNEQSFLNVRNWISQLQMHAYCENPDIVLCGNKSDLEDQRAVKEEEARELAEKYGIPYFETSAANGTNISHAIEMLLDLIMKRMERSVDKSWIPEGVVRSNGHTSADQLSEEKEKGLCGC [C188S], the “effect of a mutation on the interaction” value was “increasing interaction”. MSDGDYDYLIKFLALGDSGVGKTSVLYQYTDGKFNSKFITTVGIDFREKRVVYRANGPDGAVGRGQRIHLQLWDTAGQERFRSLTTAFFRDAMGFLLLFDLTNEQSFLNVRNWISQLQMHAYSENPDIVLCGNKSDLEDQRAVKEEEARELAEKYGIPYFETSAANGTNISHAIEMLLDLIMKRMERSVDKSWIPEGVVRSNGHTSADQLSEEKEKGLCGC [C123S;C188S] was tested, and the “effect of a mutation on the interaction” value was “increasing interaction”.

Variants of: B2
Settings: with sytl2_human SYTL2, Q9HCH5
MTDGDYDYLIKLLALGDSGVGKTTFLYRYTDNKFNPKFITTVGIDFREKRVVYDTQGADGASGKAFKVHLQLWDTAGQERFRSLTTAFFRDAMGFLLMFDLTSQQSFLNVRNWMSQLQANAYSENPDIVLIGNKADLPDQREVNERQARELAEKYGIPYFETSAATGQNVEKSVETLLDLIMKRMEKSVEKTQVPDTVNGGNSGKLDGEKPAEKKCAC [C123S;C188S] was tested, and the “effect of a mutation on the interaction” value was “increasing interaction”.

Variants of: B3
Settings: with Sytl4, Q9R0Q1-1
In the case of MTDGDYDYLIKLLALGDSGVGKTTFLYRYTDNKFNPKFITTVGIDFREKRVVYDTQGADGASGKAFKVHLQLWDTAGQERFRSLTTAFFRDAMGFLLMFDLTSQQSFLNVRNWMSQLQANAYSENPDIVLIGNKADLPDQREVNERQARELAEKYGIPYFETSAATGQNVEKSVETLLDLIMKRMEKSVEKTQVPDTVNGGNSGKLDGEKPAEKKCAC [C123S;C188S], the “effect of a mutation on the interaction” value is reported as “increasing interaction”. For MTDGDYDYLIKLLALGDSGVGKTTFLYRYTDNKFNPKFITTVGIDFREKRVVYDTQGADGASGKAFKVHLQLWDTAGQERFRSLTTAFFRDAMGFLLMFDLTSQQSFLNVRNWMSQLQANAYSENPDIVLIGNKADLPDQREVNERQARELAEKYGIPYFETSAATGQNVEKSVETLLDLIMKRMEKCVEKTQVPDTVNGGNSGKLDGEKPAEKKCAC [C123S], the “effect of a mutation on the interaction” value was “increasing interaction”. With MTDGDYDYLIKLLALGDSGVGKTTFLYRYTDNKFNPKFITTVGIDFREKRVVYDTQGADGASGKAFKVHLQLWDTAGQERFRSLTTAFFRDAMGFLLMFDLTSQQSFLNVRNWMSQLQANAYCENPDIVLIGNKADLPDQREVNERQARELAEKYGIPYFETSAATGQNVEKSVETLLDLIMKRMEKSVEKTQVPDTVNGGNSGKLDGEKPAEKKCAC [C188S] the “effect of a mutation on the interaction” value was “increasing interaction”.

Variants of: B4
Settings: with sytl2_human SYTL2, Q9HCH5
For MSDGDYDYLIKFLALGDSGVGKTSVLYQYTDGKFNSKFITTVGIDFREKRVVYRANGPDGAVGRGQRIHLQLWDTAGQERFRSLTTAFFRDAMGFLLLFDLTNEQSFLNVRNWISQLQMHAYSENPDIVLCGNKSDLEDQRAVKEEEARELAEKYGIPYFETSAANGTNISHAIEMLLDLIMKRMERSVDKSWIPEGVVRSNGHTSADQLSEEKEKGLCGC [C123S;C188S], the “effect of a mutation on the interaction” value was “increasing interaction”.

Variants of: B5
Settings: with melph_human MLPH
With MTDGDYDYLIKLLALGDSGVGKTTFLYRYTDNKFNPKFITTVGIDFREKRVVYDTQGADGASGKAFKVHLQLWDTAGQERFRSLTTAFFRDAMGFLLMFDLTSQQSFLNVRNWMSQLQANAYCENPDIVLIGNKADLPDQREVNERQARELAEKYGIPYFETSAATGQNVEKSVETLLDLIMKRMEKSVEKTQVPDTVNGGNSGKLDGEKPAEKKCAC [C188S] the “effect of a mutation on the interaction” value was “increasing interaction”. MTDGDYDYLIKLLALGDSGVGKTTFLYRYTDNKFNPKFITTVGIDFREKRVVYDTQGADGASGKAFKVHLQLWDTAGQERFRSLTTAFFRDAMGFLLMFDLTSQQSFLNVRNWMSQLQANAYSENPDIVLIGNKADLPDQREVNERQARELAEKYGIPYFETSAATGQNVEKSVETLLDLIMKRMEKSVEKTQVPDTVNGGNSGKLDGEKPAEKKCAC [C123S;C188S] was tested, and the “effect of a mutation on the interaction” value was “increasing interaction”.

Variants of: B6
Settings: with melph_human MLPH
For MSDGDYDYLIKFLALGDSGVGKTSVLYQYTDGKFNSKFITTVGIDFREKRVVYRANGPDGAVGRGQRIHLQLWDTAGQERFRSLTTAFFRDAMGFLLLFDLTNEQSFLNVRNWISQLQMHAYCENPDIVLCGNKSDLEDQRAVKEEEARELAEKYGIPYFETSAANGTNISHAIEMLLDLIMKRMERSVDKSWIPEGVVRSNGHTSADQLSEEKEKGLCGC [C188S], the “effect of a mutation on the interaction” value was “increasing interaction”. With MSDGDYDYLIKFLALGDSGVGKTSVLYQYTDGKFNSKFITTVGIDFREKRVVYRANGPDGAVGRGQRIHLQLWDTAGQERFRSLTTAFFRDAMGFLLLFDLTNEQSFLNVRNWISQLQMHAYSENPDIVLCGNKSDLEDQRAVKEEEARELAEKYGIPYFETSAANGTNISHAIEMLLDLIMKRMERSVDKSWIPEGVVRSNGHTSADQLSEEKEKGLCGC [C123S;C188S] the “effect of a mutation on the interaction” value was “increasing interaction”.
